Reference: article PMC4131202 (2013)

Target: actin filaments (UniProt P68133)
Assay: pelleting assay

B1: End4p TLD (protein)
chain: LLNAPGENIEELVDNQLAETAQAIQQAILRLQNIAAKPKDDSLSPSELQVHDSLLSASIAITEAIARLIKAATASQAEIVAQGRGSSSRGAFYKKHNRWTEGLISAAKAVARATTTLIETADGVVNGTSSFEHLIVACNGVSAATAQLVAASRVKANFASKVQDHLEDAAKAVTEACKALVRQVESVALKAKEVQHEDFSSLGVHEYRRKEIEQQVQILKLENDLVAARRRLFDMRKTSYHVA
  Kd: ~3000 nM
